# Results published in PMC10397247.
# Columns and labels:
# [1] = biological target: T1, 4H3409-AA; test: two-hybrid library CCmax; settings: mean of both orientations;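 note: natural log of median RNA to DNA barcode read ratio; higher means stronger binding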
# T1 chain: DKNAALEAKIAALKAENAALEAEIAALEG
# [2] = biological target: T2, 4H816-AA; test: two-hybrid library CCmax; settings: mean of both orientations;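 note: natural log of median RNA to DNA barcode read ratio; higher means stronger binding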
# T2 chain: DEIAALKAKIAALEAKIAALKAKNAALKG
# [3] = biological target: T3, 4H2873-AA; test: two-hybrid library CCmax;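 note: natural log of median RNA to DNA barcode read ratio; higher means stronger binding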
# T3 chain: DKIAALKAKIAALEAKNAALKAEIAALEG
# [4] = biological target: T4, 4H3134-AA; test: two-hybrid library CCmax; settings: mean of both orientations;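 note: natural log of median RNA to DNA barcode read ratio; higher means stronger binding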
# T4 chain: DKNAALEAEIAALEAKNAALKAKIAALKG
# [5] = biological target: T5, 4H87-AA; test: two-hybrid library CCmax; settings: mean of both orientations;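 note: natural log of median RNA to DNA barcode read ratio; higher means stronger binding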
# T5 chain: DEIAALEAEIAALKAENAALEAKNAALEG
# [6] = biological target: T6, 4H510-AA; test: two-hybrid library CCmax; settings: mean of both orientations;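 note: natural log of median RNA to DNA barcode read ratio; higher means stronger binding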
# T6 chain: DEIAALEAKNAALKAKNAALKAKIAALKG
# [7] = biological target: T7, 4H775-AA; test: two-hybrid library CCmax; settings: mean of both orientations
# T7 chain: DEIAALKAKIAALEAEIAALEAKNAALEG
# [8] = biological target: T8, 4H2985-AA; test: two-hybrid library CCmax; settings: mean of both orientations
# T8 chain: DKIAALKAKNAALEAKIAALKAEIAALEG
# [9] = biological target: T9, 4H3940-AA; test: two-hybrid library CCmax; settings: mean of both orientations
# T9 chain: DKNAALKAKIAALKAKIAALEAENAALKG
# [10] = biological target: T10, 4H390-AA; test: two-hybrid library CCmax; settings: mean of both orientations
# T10 chain: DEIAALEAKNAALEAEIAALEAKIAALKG
# [11] = biological target: T11, 4H3625-AA; test: two-hybrid library CCmax; settings: mean of both orientations
# T11 chain: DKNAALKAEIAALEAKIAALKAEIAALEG
# [12] = biological target: T12, O8-AA; test: two-hybrid library CCmax
# T12 chain: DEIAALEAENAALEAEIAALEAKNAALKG
# [13] = biological target: T13, P10-AA; test: two-hybrid library CCmax; settings: mean of both orientations
# T13 chain: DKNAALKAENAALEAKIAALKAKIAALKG
# [14] = biological target: T14, P9-AA; test: two-hybrid library CCmax; settings: mean of both orientations
# T14 chain: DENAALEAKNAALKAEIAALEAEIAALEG
# [15] = biological target: T15, 4H349-bA; test: two-hybrid library CCNG1
# T15 chain: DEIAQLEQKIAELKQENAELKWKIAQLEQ
# [16] = biological target: T16, 4H796-bA; test: two-hybrid library CCNG1
# T16 chain: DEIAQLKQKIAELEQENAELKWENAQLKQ
# [17] = biological target: T17, 4H949-bA; test: two-hybrid library CCNG1
# T17 chain: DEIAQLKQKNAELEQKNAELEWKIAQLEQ
# [18] = biological target: T18, 4H3297-bA; test: two-hybrid library CCNG1
# T18 chain: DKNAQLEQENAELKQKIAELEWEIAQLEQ
# [19] = biological target: T19, 4H730-bA; test: two-hybrid library CCNG1
# T19 chain: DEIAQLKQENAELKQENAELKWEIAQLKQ
# [20] = biological target: T20, 4H3381-bA; test: two-hybrid library CCNG1
# T20 chain: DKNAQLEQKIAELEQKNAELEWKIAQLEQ
# [21] = biological target: T21, 4H932-bA; test: two-hybrid library CCNG1
# T21 chain: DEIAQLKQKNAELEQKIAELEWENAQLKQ
# [22] = biological target: T22, 4H3041-bA; test: two-hybrid library CCNG1
# T22 chain: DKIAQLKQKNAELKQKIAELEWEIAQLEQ
# [23] = biological target: T23, 4H56-bA; test: two-hybrid library CCNG1
# T23 chain: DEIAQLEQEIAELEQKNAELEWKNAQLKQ
# [24] = biological target: T24, 4H3364-bA; test: two-hybrid library CCNG1
# T24 chain: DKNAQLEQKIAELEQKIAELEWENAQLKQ
# [25] = biological target: T25, 4H3627-AA; test: two-hybrid library CCmax; settings: mean of both orientations
# T25 chain: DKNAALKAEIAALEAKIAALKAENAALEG
# [26] = biological target: T26, 4H2190-AA; test: two-hybrid library CCmax
# T26 chain: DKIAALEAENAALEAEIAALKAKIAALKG
# [27] = biological target: T27, 4H717-AA; test: two-hybrid library CCmax; settings: mean of both orientations
# T27 chain: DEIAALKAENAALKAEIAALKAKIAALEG
# [28] = biological target: T28, 4H2505-AA; test: two-hybrid library CCmax; settings: mean of both orientations
# T28 chain: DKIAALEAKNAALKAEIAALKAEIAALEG
# [29] = biological target: T29, 4H2354-AA; test: two-hybrid library CCmax; settings: mean of both orientations
# T29 chain: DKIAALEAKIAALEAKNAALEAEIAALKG
# [30] = biological target: T30, 4H2277-AA; test: two-hybrid library CCmax; settings: mean of both orientations
# T30 chain: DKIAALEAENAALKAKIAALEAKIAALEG
# [31] = biological target: T31, 4H3921-AA; test: two-hybrid library CCmax; settings: mean of both orientations
# T31 chain: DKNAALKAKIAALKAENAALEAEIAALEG
# [32] = biological target: T32, 4H234-AA; test: two-hybrid library CCmax; settings: mean of both orientations
# T32 chain: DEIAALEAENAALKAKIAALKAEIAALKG
# [33] = biological target: T33, 4H605-AA; test: two-hybrid library CCmax; settings: mean of both orientations
# T33 chain: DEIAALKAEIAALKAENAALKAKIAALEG
# [34] = biological target: T34, 4H3606-AA; test: two-hybrid library CCmax; settings: mean of both orientations
# T34 chain: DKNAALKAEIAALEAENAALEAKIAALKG
# [35] = biological target: T35, 4H2575-AA; test: two-hybrid library CCmax; settings: mean of both orientations
# T35 chain: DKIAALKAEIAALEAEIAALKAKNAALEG
# [36] = biological target: T36, 4H2949-AA; test: two-hybrid library CCmax; settings: mean of both orientations
# T36 chain: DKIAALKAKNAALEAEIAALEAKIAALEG
# [37] = biological target: T37, 4H993-AA; test: two-hybrid library CCmax; settings: mean of both orientations
# T37 chain: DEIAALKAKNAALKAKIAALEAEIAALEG
# [38] = biological target: T38, 4H794-AA; test: two-hybrid library CCmax; settings: mean of both orientations
# T38 chain: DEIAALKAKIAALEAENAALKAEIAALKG
# [39] = biological target: T39, 4H2883-AA; test: two-hybrid library CCmax; settings: mean of both orientations
# T39 chain: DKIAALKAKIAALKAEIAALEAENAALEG
# [40] = biological target: T40, 4H566-AA; test: two-hybrid library CCmax; settings: mean of both orientations
# T40 chain: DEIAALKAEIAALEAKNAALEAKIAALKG
# [41] = biological target: T41, 4H3112-AA; test: two-hybrid library CCmax; settings: mean of both orientations
# T41 chain: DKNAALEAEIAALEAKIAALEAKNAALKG
# [42] = biological target: T42, 4H342-AA; test: two-hybrid library CCmax; settings: mean of both orientations
# T42 chain: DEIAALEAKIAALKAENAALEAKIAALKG
# [43] = biological target: T43, 4H678-AA; test: two-hybrid library CCmax; settings: mean of both orientations
# T43 chain: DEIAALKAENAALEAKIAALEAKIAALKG
# [44] = biological target: T44, 4H881-AA; test: two-hybrid library CCmax; settings: mean of both orientations
# T44 chain: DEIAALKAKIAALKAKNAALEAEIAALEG
# [45] = biological target: T45, 4H2617-AA; test: two-hybrid library CCmax; settings: mean of both orientations
# T45 chain: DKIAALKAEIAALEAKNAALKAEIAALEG
# [46] = biological target: T46, 4H2754-AA; test: two-hybrid library CCmax; settings: mean of both orientations
# T46 chain: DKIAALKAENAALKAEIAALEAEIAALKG
# [47] = biological target: T47, 4H2729-AA; test: two-hybrid library CCmax; settings: mean of both orientations
# T47 chain: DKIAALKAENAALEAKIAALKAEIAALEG
# [48] = biological target: T48, 4H3427-AA; test: two-hybrid library CCmax; settings: mean of both orientations
# T48 chain: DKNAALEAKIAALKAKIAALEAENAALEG
# [49] = biological target: T49, 4H3343-AA; test: two-hybrid library CCmax; settings: mean of both orientations
# T49 chain: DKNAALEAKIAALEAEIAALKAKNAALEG
# [50] = biological target: T50, 4H2466-AA; test: two-hybrid library CCmax; settings: mean of both orientations
# T50 chain: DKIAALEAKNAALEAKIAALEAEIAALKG
# [51] = biological target: T51, 4H429-AA; test: two-hybrid library CCmax; settings: mean of both orientations
# T51 chain: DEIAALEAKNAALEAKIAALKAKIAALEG
# [52] = biological target: T52, 4H3844-AA; test: two-hybrid library CCmax; settings: mean of both orientations
# T52 chain: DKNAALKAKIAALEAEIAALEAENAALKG
# [53] = biological target: T53, 4H906-AA; test: two-hybrid library CCmax; settings: mean of both orientations
# T53 chain: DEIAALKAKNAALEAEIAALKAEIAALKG
# [54] = biological target: T54, 4H3655-AA; test: two-hybrid library CCmax; settings: mean of both orientations
# T54 chain: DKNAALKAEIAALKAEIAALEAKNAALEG
# [55] = biological target: T55, 4H2642-AA; test: two-hybrid library CCmax; settings: mean of both orientations
# T55 chain: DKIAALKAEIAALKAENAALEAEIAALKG
# [56] = biological target: T56, 4H317-AA; test: two-hybrid library CCmax; settings: mean of both orientations
# T56 chain: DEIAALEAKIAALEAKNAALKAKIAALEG
# [57] = biological target: T57, 4H780-AA; test: two-hybrid library CCmax; settings: mean of both orientations
# T57 chain: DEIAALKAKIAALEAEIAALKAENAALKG
# [58] = biological target: T58, 4H335-AA; test: two-hybrid library CCmax; settings: mean of both orientations
# T58 chain: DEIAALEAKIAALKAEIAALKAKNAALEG
# [59] = biological target: T59, 4H2944-AA; test: two-hybrid library CCmax; settings: mean of both orientations
# T59 chain: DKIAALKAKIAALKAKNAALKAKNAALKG
# [60] = biological target: T60, 4H2393-AA; test: two-hybrid library CCmax; settings: mean of both orientations
# T60 chain: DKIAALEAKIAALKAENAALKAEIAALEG
# [61] = biological target: T61, 4H2837-AA; test: two-hybrid library CCmax; settings: mean of both orientations
# T61 chain: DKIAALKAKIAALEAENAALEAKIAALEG
# [62] = biological target: T62, 4H454-AA; test: two-hybrid library CCmax; settings: mean of both orientations
# T62 chain: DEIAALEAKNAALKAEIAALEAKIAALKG
# [63] = biological target: T63, 4H48-AA; test: two-hybrid library CCmax; settings: mean of both orientations
# T63 chain: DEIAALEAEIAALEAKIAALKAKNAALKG
binder,measurement,setting,value
DKIAALKAKIAALEAKNAALKAEIAALEG [4H2873-AA],interaction score,[1],0.324
same,interaction score,[2],-0.999
same,interaction score,[3],0.429
same,interaction score,[4],1.06
same,interaction score,[5],0.464
same,interaction score,[6],-0.174
same,interaction score,[7],-0.187
same,interaction score,[8],2.29
same,interaction score,[9],-1.33
same,interaction score,[10],2.21
same,interaction score,[11],1.8
DEIAALEAENAALEAEIAALEAKNAALKG [O8-AA],interaction score,[12],-1.16
same,interaction score,[13],-0.856
same,interaction score,[14],-1.26
DKIAQLKQKNAELKQKIAELEWEIAQLEQ [4H3041-bA],interaction score,[15],-1.44
same,interaction score,[16],-1.16
same,interaction score,[17],-1.15
same,interaction score,[18],-0.21
same,interaction score,[19],-1.65
same,interaction score,[20],-1.17
same,interaction score,[21],-0.693
same,interaction score,[22],0.985
same,interaction score,[23],0.805
same,interaction score,[24],-1
DKIAALEAENAALEAEIAALKAKIAALKG [4H2190-AA],interaction score,[25],-0.558
same,interaction score,[26],2.19
same,interaction score,[27],1.16
same,interaction score,[28],2.21
same,interaction score,[29],-0.303
same,interaction score,[30],1.06
same,interaction score,[31],-1.21
same,interaction score,[32],1.66
same,interaction score,[33],-1.55
same,interaction score,[34],-0.529
same,interaction score,[35],-0.718
same,interaction score,[36],2.07
same,interaction score,[37],2.17
same,interaction score,[38],-0.883
same,interaction score,[39],0.596
same,interaction score,[40],0.26
same,interaction score,[41],-0.916
same,interaction score,[42],0.437
same,interaction score,[43],-0.81
same,interaction score,[44],0.176
same,interaction score,[45],0.788
same,interaction score,[46],2.3
same,interaction score,[47],2.26
same,interaction score,[48],-1.15
same,interaction score,[49],-1.32
same,interaction score,[50],0.489
same,interaction score,[51],1.95
same,interaction score,[52],0.147
same,interaction score,[53],1.04
same,interaction score,[54],1.73
same,interaction score,[55],-0.738
same,interaction score,[56],2.09
same,interaction score,[57],-1.55
same,interaction score,[58],0.22
same,interaction score,[59],-1.51
same,interaction score,[60],0.996
same,interaction score,[61],-1.55
same,interaction score,[62],1.72
same,interaction score,[63],-0.0631
